One may read the stoichiometry N as a count of units in the complex or per binding partner.

The results in this text go back to publication doi:10.1101/2022.06.15.496202.

This experiment deals with Cas7c (D. vulgaris). In words: cryo-EM structure.

As to Cas7c (natural protein), the stoichiometry N amounted to 7.
